# Reference: article PMC8157113
# Target: Hepatitis B patients' plasma-derived HBsAg particles (HBV surface antigen, subviral particle of HBV)
# Assay: AlphaScreen
# Details: parent: est. 1.3; read off a plot
substance,measurement,value
"Myr47 lipopeptide (HBV pre-S1 domain, myristoylated 2–48 peptide), biotinylated Ala11–15",response,1.4 RLU (×10^6)
